Reference: paper PMC3285539 (Nature, 2012)

How the values were obtained:
Rpn1 = biological target: T1, Rpn1 (S. cerevisiae, UniProt P38764 1-993); assay: cryo-EM structure
T1 sequence: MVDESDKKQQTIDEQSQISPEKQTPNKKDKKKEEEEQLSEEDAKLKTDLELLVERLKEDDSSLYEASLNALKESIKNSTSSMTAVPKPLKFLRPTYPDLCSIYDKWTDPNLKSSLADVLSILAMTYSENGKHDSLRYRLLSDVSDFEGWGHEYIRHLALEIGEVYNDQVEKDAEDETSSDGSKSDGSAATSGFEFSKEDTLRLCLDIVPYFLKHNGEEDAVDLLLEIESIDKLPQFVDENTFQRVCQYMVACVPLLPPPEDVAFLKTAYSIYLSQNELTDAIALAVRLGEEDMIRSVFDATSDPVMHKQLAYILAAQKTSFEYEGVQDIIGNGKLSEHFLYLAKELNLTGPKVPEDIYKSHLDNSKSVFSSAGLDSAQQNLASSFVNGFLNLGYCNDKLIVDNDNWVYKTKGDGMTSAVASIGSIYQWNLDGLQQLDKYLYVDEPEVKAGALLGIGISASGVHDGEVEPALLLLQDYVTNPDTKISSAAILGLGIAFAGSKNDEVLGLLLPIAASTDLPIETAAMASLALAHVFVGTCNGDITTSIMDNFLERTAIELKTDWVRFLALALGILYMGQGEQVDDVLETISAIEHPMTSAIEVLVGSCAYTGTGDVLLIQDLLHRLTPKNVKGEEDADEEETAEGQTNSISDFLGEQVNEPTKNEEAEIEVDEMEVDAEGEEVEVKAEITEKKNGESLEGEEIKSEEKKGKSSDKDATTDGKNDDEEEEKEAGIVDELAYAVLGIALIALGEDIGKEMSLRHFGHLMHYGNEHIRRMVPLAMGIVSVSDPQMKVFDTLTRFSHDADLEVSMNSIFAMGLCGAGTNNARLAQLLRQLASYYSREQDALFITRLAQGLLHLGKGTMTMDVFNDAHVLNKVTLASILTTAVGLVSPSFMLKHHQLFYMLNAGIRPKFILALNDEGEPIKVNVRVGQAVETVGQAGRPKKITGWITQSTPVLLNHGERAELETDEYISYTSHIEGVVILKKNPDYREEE

Rpt2 = Rpt2 (S. cerevisiae, UniProt P40327 1-437); assay: cryo-EM structure
Chain of Rpt2 (P40327 whole entry): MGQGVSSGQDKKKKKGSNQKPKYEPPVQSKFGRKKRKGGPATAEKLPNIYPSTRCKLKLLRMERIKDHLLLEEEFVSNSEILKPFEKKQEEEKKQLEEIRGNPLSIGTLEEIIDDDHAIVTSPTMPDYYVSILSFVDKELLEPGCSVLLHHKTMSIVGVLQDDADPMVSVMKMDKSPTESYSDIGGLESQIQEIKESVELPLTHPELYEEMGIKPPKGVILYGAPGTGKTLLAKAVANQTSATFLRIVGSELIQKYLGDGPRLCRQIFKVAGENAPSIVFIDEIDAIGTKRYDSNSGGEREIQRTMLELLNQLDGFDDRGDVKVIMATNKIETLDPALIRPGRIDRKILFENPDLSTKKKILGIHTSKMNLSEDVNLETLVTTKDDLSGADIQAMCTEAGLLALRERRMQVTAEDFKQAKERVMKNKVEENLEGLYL

- binding result (Rpn1): binds
- binding result (Rpt2): binds
B1: 20S core subunit α4 (natural protein)
chain: MSGYDRALSIFSPDGHIFQVEYALEAVKRGTCAVGVKGKNCVVLGCERRSTLKLQDTRITPSKVSKIDSHVVLSFSGLNADSRILIEKARVEAQSHRLTLEDPVTVEYLTRYVAGVQQRYTQSGGVRPFGVSTLIAGFDPRDDEPKLYQTEPSGIYSSWSAQTIGRNSKTVREFLEKNYDRKEPPATVEECVKLTVRSLLEVVQTGAKNIEITVVKPDSDIVALSSEEINQYVTQIEQEKQEQQEQDKKKKSNH
